Results taken from IntAct's records for PubMed 21385318.

B1: Kinase non-catalytic C-lobe domain-containing protein 1 (Mus musculus), Q0KK55 (parent)
chain: MQAMDPASRGFYEEDGKDLDFYDFEPLPTLPEDEENVSLADILSLRDRGLSEQEAWAVCLECSLSMRSVAHAAIFQTLCITPDTLAFNTSGNVCFMEQLSDDPEGAFVPPEFDLTGNTFEAHIYSLGATLKAALEYVPEPELEPKLSTDLEGLLSQMQAEDPRERPDLASIIALCEEKMQPVSSCRLCRSLSAIGRRVLSIESFGAFQELSENTWRGRPAPRNVGPKKMPGDLSTDPEALFPSKGLLQPPASRDAEQEAGQRPRAPSPKPLLSAPVRNGENPGQEGLADLVLDARCPLGELDRDNLRRSRLKKAQTFPRLLQESTETSTLCLSLNGSRNQLAISEFFPPDPRKLFLEGKNGLSGFKTQSKSRLWPEQEPGVQLDKTPGAGRNPHRSPGASGQLEASSPSQGSVEYKPSPSPVDAGDSDHEGHIPRSEEKIPEESRQPGSTATEQSLSLKDLLSKLGRPFREYELWALCLSCLSTLQTHKEHPAHLCLDNVLVAEDGTVFFGPPPANGAYNSLFLAPEVSEEKLVTEKASVYCVAAVLWTAAKFSVPRDHKLALPRRLKTLLLDMARRHASERPSAAEAIKVCSSYLLQRGMDSSKILAHLRASTCKVHPEEETIGLQNAFSVVELKSTTAPAPESSPGFLQVSNDTKLVAVPGPVPGLPPCCKEACELPAAFTSEATHFKPIVLAQDASVTRDQLALPSESNEKPKEGSGHLDREGTRKQAALELVEATDLKMSNQLSPGPELQGATPDPDGDSGSPSSATECSCPHGPALVTQQKGTSGTPSSPASSLPPEHRPDGEGPLGTTVLPGPTSASQGSRHPCKPPRGKAAASPSSPRGSDGHPEKPRPADRKLCPSSVDTSSPPKMTACPSLQEAMRLIQEEFAFDGYMDNGLEALIMGEYIYALKDLTFATFCGAISEKFCDLYWDEQLLKNLFKVVNGPASPSESTSEEPGSQPEHSPSRCSLSSKRPSLHGLGKEKPATTWGSGGPCSPTALSDIDSDTLSQGNFEVGFRSQKSIKVTREQQPEAEVGGQPGPSQDSTSHASDTVARLARSEDGGPAGSPGASDFQNCSPGWSSAFYEADCFGADVYNYVKDLERQKTNGHTELEAQSPELEQQLMIEKRNYRKTLKFYQKLLQKEKRNKGSEVRTMLSKLRGQLDEMKSKVQFLSLVKKYLQVMYAERWGLEPCALPVIVNIAAAPCDTLDFSPLDESSSLIFYNVNKHPGSGRQKKARILQAGTPLGLMAYLYSSDAFLEGYVQQFLYTFRYFCTPHDFLHFLLDRISSTLSRAHQDPTSTFTKIYRRSLCVLQAWVEDCYTVDFIRNAGLLGQLEDFISSKILPLDGTAEHLLALLEVGTERRADSASRGADLEDPKEAEEDTRPFNALCKRFSEDGITRKSFSWRLPRGNGLVLPHHKERQYTIASALPKPCFFEDFYGPYAKASEKGPYFLTEYSTNQLFTQLTLLQQELFQKCHPVHFLNSRALGVMDKSAAIPKASSSESLSAKTCSLFLPNYVQDKYLLQLLRNADDVSTWVAAEIVTSHTSKLQVNLLSKFLLIAKSCYEQRNFATAMQILGGLEHLAVRQSPAWRILPAKIAEVMEELKAVEVFLKSDSLCLMEGRRFRAQPTLPSAHLLAMHIQQLETGGFTMTNGAHRWSKLRNIAKVASQVHAFQENPYTFSPDPKLQAHLKQRIARFSGADVSILAADNRANFHQIPGEKHSRKIQDKLRRMKATFQ

Variants of: B1
Settings: with mtap2_mouse Map2, P20357
Chain of mtap2_mouse Map2, P20357 (P20357 whole entry): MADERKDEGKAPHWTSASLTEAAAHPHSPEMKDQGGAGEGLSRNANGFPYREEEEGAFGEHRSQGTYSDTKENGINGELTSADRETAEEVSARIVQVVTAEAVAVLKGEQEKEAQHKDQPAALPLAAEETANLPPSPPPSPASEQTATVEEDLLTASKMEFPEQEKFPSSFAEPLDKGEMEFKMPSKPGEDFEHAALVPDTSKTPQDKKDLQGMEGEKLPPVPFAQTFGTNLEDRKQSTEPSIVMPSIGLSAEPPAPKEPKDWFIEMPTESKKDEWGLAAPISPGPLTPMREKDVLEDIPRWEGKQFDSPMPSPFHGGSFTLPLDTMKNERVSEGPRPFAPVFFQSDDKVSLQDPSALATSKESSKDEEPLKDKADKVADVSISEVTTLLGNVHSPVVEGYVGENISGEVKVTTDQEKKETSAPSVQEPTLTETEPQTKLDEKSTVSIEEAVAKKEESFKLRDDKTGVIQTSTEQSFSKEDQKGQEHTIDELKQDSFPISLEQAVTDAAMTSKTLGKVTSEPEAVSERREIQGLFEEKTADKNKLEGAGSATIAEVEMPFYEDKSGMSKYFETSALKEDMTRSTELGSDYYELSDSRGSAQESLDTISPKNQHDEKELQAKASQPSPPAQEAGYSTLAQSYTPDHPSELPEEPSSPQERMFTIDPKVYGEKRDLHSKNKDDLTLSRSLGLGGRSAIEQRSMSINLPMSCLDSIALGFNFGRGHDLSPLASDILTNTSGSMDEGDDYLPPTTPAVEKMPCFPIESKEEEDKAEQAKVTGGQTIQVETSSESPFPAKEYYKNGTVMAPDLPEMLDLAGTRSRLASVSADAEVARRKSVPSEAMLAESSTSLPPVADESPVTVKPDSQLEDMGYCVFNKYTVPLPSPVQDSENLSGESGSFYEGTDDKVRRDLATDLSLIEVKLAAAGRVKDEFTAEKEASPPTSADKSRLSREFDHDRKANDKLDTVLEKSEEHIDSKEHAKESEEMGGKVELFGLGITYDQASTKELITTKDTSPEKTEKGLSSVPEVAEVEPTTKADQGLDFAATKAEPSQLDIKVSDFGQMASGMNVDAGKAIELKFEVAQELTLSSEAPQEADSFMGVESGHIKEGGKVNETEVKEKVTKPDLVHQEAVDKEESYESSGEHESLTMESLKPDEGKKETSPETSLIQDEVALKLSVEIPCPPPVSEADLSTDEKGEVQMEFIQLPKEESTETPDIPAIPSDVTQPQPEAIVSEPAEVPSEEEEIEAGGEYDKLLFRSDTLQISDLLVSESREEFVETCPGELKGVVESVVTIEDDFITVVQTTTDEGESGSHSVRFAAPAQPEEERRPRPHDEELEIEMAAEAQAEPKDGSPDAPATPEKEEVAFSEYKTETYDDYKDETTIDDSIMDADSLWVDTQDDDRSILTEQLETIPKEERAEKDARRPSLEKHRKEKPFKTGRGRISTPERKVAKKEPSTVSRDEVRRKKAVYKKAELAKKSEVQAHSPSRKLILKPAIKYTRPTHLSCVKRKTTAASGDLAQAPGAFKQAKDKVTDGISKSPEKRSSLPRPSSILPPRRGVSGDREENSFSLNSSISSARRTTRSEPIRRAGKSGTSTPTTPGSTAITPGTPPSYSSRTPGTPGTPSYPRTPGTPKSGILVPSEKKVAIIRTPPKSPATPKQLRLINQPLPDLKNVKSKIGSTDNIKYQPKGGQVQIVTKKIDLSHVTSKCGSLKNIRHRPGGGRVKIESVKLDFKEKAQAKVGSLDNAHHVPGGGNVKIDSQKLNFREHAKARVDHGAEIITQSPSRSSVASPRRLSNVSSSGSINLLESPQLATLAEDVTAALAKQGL

| Variant | effect of a mutation on the interaction |
| --- | --- |
| L461A | disrupting interaction |

Variants of: B1
Settings: with mtap2_mouse Map2, P20357
Remark: another data set of the same source

| Variant | effect of a mutation on the interaction |
| --- | --- |
| L474A | disrupting interaction |

Variants of: B1
Settings: with mtap2_mouse Map2, P20357
Remark: another data set of the same source

| Variant | effect of a mutation on the interaction |
| --- | --- |
| L477A | disrupting interaction |
